Experiments:
azocasein [1] = assay: Stability of Me-trypsin in the Example 2A composition, azocasein method; assay type: physicochemical
Protocol: Azocasein Method The following solutions are used in this assay: 1) Buffer solution: 0.05 M sodium phosphate buffer containing 0.9% sodium chloride, pH 7.6. 2) Substrate solution: 2 mg/ml azocasein in the buffer solution mentioned above. The assay is initiated by mixing 1 ml of an appropriately diluted (such that the enzyme activity is in the range of standard curve) enzyme composition in phosphate buffer with 2 ml of azocasein substrate solution (2 mg/ml). After incubation at 37° C. for 20 minutes, the mixture is removed from the incubator and 1 ml of trichloroacetic acid to (14% w/v) is added to stop the enzyme reaction. The mixture is vortexed well and allowed to stand at room temperature for 20 minutes. After centrifuging at 2500 rpm (with a Beckman GS-6R Centrifuge) for 15 minutes, the supernatant is filtered with a serum sampler. 2 ml of the clear yellow filtrate is then adjusted to a neutral pH with 2 ml of 0.5 N sodium hydroxide and the absorbance of 440 nm wavelength light is measured with a spectrophotometer. The amount of azocasein hydrolyzed is calculated based on a standard curve of known concentrations of azocasein solution developed under identical conditions. An enzyme activity unit (“AZ U”) is defined as that amount of enzyme which hydrolyzes 1 μg of azocasein substrate/minute at 37° C. […] At the appointed time, aliquots were tested for enzyme activity by the azocasein method. Activity levels were compared with initial levels and expressed as percent remaining activity.

azocasein [2] = assay: Stability of Et-trypsin and trypsin in a disinfecting composition (Example 2B), azocasein method; assay type: physicochemical; conditions: 37° C., Example 2B composition, 50 μg/ml
Protocol: Azocasein Method The following solutions are used in this assay: 1) Buffer solution: 0.05 M sodium phosphate buffer containing 0.9% sodium chloride, pH 7.6. 2) Substrate solution: 2 mg/ml azocasein in the buffer solution mentioned above. The assay is initiated by mixing 1 ml of an appropriately diluted (such that the enzyme activity is in the range of standard curve) enzyme composition in phosphate buffer with 2 ml of azocasein substrate solution (2 mg/ml). After incubation at 37° C. for 20 minutes, the mixture is removed from the incubator and 1 ml of trichloroacetic acid to (14% w/v) is added to stop the enzyme reaction. The mixture is vortexed well and allowed to stand at room temperature for 20 minutes. After centrifuging at 2500 rpm (with a Beckman GS-6R Centrifuge) for 15 minutes, the supernatant is filtered with a serum sampler. 2 ml of the clear yellow filtrate is then adjusted to a neutral pH with 2 ml of 0.5 N sodium hydroxide and the absorbance of 440 nm wavelength light is measured with a spectrophotometer. The amount of azocasein hydrolyzed is calculated based on a standard curve of known concentrations of azocasein solution developed under identical conditions. An enzyme activity unit (“AZ U”) is defined as that amount of enzyme which hydrolyzes 1 μg of azocasein substrate/minute at 37° C. The following is an example of the stability of Et-trypsin or Me-trypsin in a disinfecting composition of the present invention as compared to an analogous composition containing trypsin. The enzymes were solubilized in the Example 2B composition. The compositions were stored at 37° or 50° C. for 8 days or 30 hours, respectively. At various time points, enzyme activity was assayed using the azocasein method.

methyl trypsin [Me-Trypsin] was tested, and the “Percent Remaining Activity” value (azocasein [1]; 40° C., 1 week) was 100%, the “Percent Remaining Activity” value (azocasein [1]; 40° C., 2 weeks) was 100% and the “Percent Remaining Activity” value (azocasein [1]; 40° C., 4 weeks) was 93.7%. For the same substance, the “Percent Remaining Activity” value (azocasein [1]; 40° C., 6 weeks) was 100%, the “Percent Remaining Activity” value (azocasein [1]; 40° C., 8 weeks) was 100% and the “Percent Remaining Activity” value (azocasein [1]; 40° C., 12 weeks) was 100%. For the same substance, the “Percent Remaining Activity” value (azocasein [1]; 45° C., 1 week) was 100%, the “Percent Remaining Activity” value (azocasein [1]; 45° C., 2 weeks) was 100% and the “Percent Remaining Activity” value (azocasein [1]; 45° C., 4 weeks) was 92.7%. The “Percent Remaining Activity” value (azocasein [1]; 45° C., 6 weeks) was 97.8%, the “Percent Remaining Activity” value (azocasein [1]; 45° C., 8 weeks) was 100% and the “Percent Remaining Activity” value (azocasein [1]; 45° C., 12 weeks) was 97.6%. For the same substance, the “Percent Remaining Activity” value (azocasein [1]; 50° C., 1 week) was 91.8%, the “Percent Remaining Activity” value (azocasein [1]; 50° C., 2 weeks) was 91.8% and the “Percent Remaining Activity” value (azocasein [1]; 50° C., 4 weeks) was 82.4%. For the same substance, the “Percent Remaining Activity” value (azocasein [1]; 50° C., 6 weeks) was 81.3%, the “Percent Remaining Activity” value (azocasein [1]; 50° C., 8 weeks) was 75.2% and the “Percent Remaining Activity” value (azocasein [1]; 50° C., 12 weeks) was 71.5%. For the same substance, the “Percent Remaining Activity” value (azocasein [1]; 55° C., 1 week) was 82.1%, the “Percent Remaining Activity” value (azocasein [1]; 55° C., 2 weeks) was 75.3% and the “Percent Remaining Activity” value (azocasein [1]; 55° C., 4 weeks) was 46.5%. For the same substance, the “Percent Remaining Activity” value (azocasein [1]; RT, 1 week) was 100%, the “Percent Remaining Activity” value (azocasein [1]; RT, 2 weeks) was 100% and the “Percent Remaining Activity” value (azocasein [1]; RT, 4 weeks) was 94.1%. For the same substance, the “Percent Remaining Activity” value (azocasein [1]; RT, 6 weeks) was 100%, the “Percent Remaining Activity” value (azocasein [1]; RT, 8 weeks) was 100% and the “Percent Remaining Activity” value (azocasein [1]; RT, 12 weeks) was 100%.
For “Trypsin [Native Trypsin, reference compound]”, the “% Activity Remaining” value (azocasein [2]; 1 Hour) was 86.8%, the “% Activity Remaining” value (azocasein [2]; 2 Hours) was 80.0% and the “% Activity Remaining” value (azocasein [2]; 4 Hours) was 72.7%. The “% Activity Remaining” value (azocasein [2]; 6 Hours) was 62.9%, the “% Activity Remaining” value (azocasein [2]; 8 Hours) was 56.6% and the “% Activity Remaining” value (azocasein [2]; 1 day) was 37.6%. For the same substance, the “% Activity Remaining” value (azocasein [2]; 2 days) was 26.8%, the “% Activity Remaining” value (azocasein [2]; 4 days) was 17.9% and the “% Activity Remaining” value (azocasein [2]; 8 days) was 11.2%.

— patent US6358897B1, “Alkyl trypsin compositions and methods of use in contact lens cleaning and disinfecting systems” (Alcon Laboratories, Inc., priority 1996, dated 2002)
